From patent US11278600B2, “Human alpha-galactosidase variants” (Codexis, Inc., priority 2014, dated 2022) come the findings set out here.

What all share (type): biochemical
Data set [1] in a line: HTP-analysis of supernatants pretreated with base (MUGal hydrolysis). The following applies: activity of the variant/activity of Rd4BB (SEQ ID NO: 15); challenge at pH 9.65. The method in brief:
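GLA variants were secreted by transformed INVSc1 yeast grown 66-84 h at 30° C. Supernatants were exposed to neutral-to-basic buffers (pH 7.0-9.7) at 37° C for 1-18 h, then assayed with MUGal in acidic citrate/McIlvaine buffer, with fluorescence read after quenching.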

Data set [2] in a line: HTP-analysis of supernatants pretreated with acid (MUGal hydrolysis). As to conditions: activity of the variant/activity of Rd4BB (SEQ ID NO: 15); challenge at pH 3.7. The method in brief: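 Yeast INVSc1 supernatant, GLA variants; acid challenge: McIlvaine pH 3.3-4.3, 37° C., 1-3 h. Assay: MUGal in McIlvaine pH 4.8 plus citrate pH 4.3, 37° C., 30-180 min, Na2CO3 stop, Ex 355/Em 448 nm.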

Data set [3] can be described thus: HTP-analysis of yeast culture supernatants, no challenge (MUGal hydrolysis). As to conditions: activity of the variant/activity of Rd4BB (SEQ ID NO: 15). The method in brief: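 Activity read as 4-methylumbelliferyl α-D-galactopyranoside hydrolysis: fluorescence (355/448 nm) after sodium carbonate stop, following 30-180 min at 37° C with 2 mM MUGal stock at pH 4.6–4.8. Enzyme source is unchallenged culture supernatant of INVSc1 yeast expressing GLA variants, grown 66-84 h at 30° C.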

B1: 489 (protein)
chain: LDNGLARTPTMGWLHWERFMCNLDCQEEPDSCISEKLFMEMAERMVSEGWKDAGYEYLCIDDCWMAPQRDSEGRLQADPQRFPHGIRQLANYVHSKGLKLGIYADVGNKTCAGFPGSFGYYDIDAQTFADWGVDLLKFDGCYCDSLENLADGYKHMSLALNRTGRSIVYSCEWPLYMWPFQKPNYTEIRQYCNHWRNFADIDDSWKSIKSILDWTSFNQERIVDVAGPGGWNDPDMLVIGNFGLSWNQQVTQMALWAIMAAPLFMSNDLRHISPQAKALLQDKDVIAINQDPLGKQGYQLRQGDNFEVWERPLSGLAWAVAMINRQEIGGPRSYTIAVASLGKGVACNPACFITQLLPVKRKLGFYEWTSRLRSHINPTGTVLLQLENIMQMSLKDLL
modifications: Synthetic Polypeptide sequence of Variant No. 489 of mature Human GLA
As to B1, the “Relative Activity of GLA Variants After Challenge at pH 9.65” value (“Relative Activity … at pH 9.65” below) in data set [1] is recorded as “+ (0.5 to 1.5 relative activity over Rd4BB (SEQ ID NO: 15))”. Further, in data set [2], the “Relative Activity of GLA Variants After Challenge at pH 3.7” value (from here on “Relative Activity … at pH 3.7”) is “+ (0.5 to 1.5 relative activity over Rd4BB (SEQ ID NO: 15))”. The “Relative Activity of GLA Variants After No Challenge (NC)” value in data set [3] is reported as “+ (0.5 to 1.5 relative activity over Rd4BB (SEQ ID NO: 15))”.

B2: 491 (protein)
chain: LDNGLARTPTMGWLHWERFMCNLDCQEEPDSCISEKLFMEMAERMVSEGWKDAGYEYLCIDDCWMAPQRDSEGRLQADPQRFPHGIRQLANYVHSKGLKLGIYADVGNKTCAGFPGSFGYYDIDAQTFADWGVDLLKFDGCYCDSLENLADGYKHMSLALNRTGRSIVYSCEWPLYMWPFQKPNYTEIRQYCNHWRNFADIDDSWKSIKSILDWTSFNQERIVDVAGPGGWNDPDMLVIGNFGLSWNQQVTQMALWAIMAAPLFMSNDLRHISPQAKALLQDKDVIAINQDPLGKQGYQLRQGDNFEVWERPLSGLAWAVAMINRQEIGGPRSYTIAVASLGKGVACNPACFITQLLPVKRKLGFYEWTSRLRSHINPTGTVLLQLENTWQMSLKDLL
modifications: Synthetic Polypeptide sequence of Variant No. 491 of mature Human GLA
B2: the “Relative Activity … at pH 9.65” value in data set [1] is on record as “+ (0.5 to 1.5 relative activity over Rd4BB (SEQ ID NO: 15))”. In addition, the “Relative Activity … at pH 3.7” value in data set [2] was “+ (0.5 to 1.5 relative activity over Rd4BB (SEQ ID NO: 15))”. Further, the “Relative Activity of GLA Variants After No Challenge (NC)” value in data set [3] is “+ (0.5 to 1.5 relative activity over Rd4BB (SEQ ID NO: 15))”.

B3: 490 (protein)
chain: LDNGLARTPTMGWLHWERFMCNLDCQEEPDSCISEKLFMEMAERMVSEGWKDAGYEYLCIDDCWMAPQRDSEGRLQADPQRFPHGIRQLANYVHSKGLKLGIYADVGNKTCAGFPGSFGYYDIDAQTFADWGVDLLKFDGCYCDSLENLADGYKHMSLALNRTGRSIVYSCEWPLYMWPFQKPNYTEIRQYCNHWRNFADIDDSWKSIKSILDWTSFNQERIVDVAGPGGWNDPDMLVIGNFGLSWNQQVTQMALWAIMAAPLFMSNDLRHISPQAKALLQDKDVIAINQDPLGKQGYQLRQGDNFEVWERPLSGLAWAVAMINRQEIGGPRSYTIAVASLGKGVACNPACFITQLLPVKRKLGFYEWTSRLRSHINPTGTVLLQLENTDQMSLKDLL
modifications: Synthetic Polypeptide sequence of Variant No. 490 of mature Human GLA
Consider B3, for which the “Relative Activity … at pH 9.65” value in data set [1] is recorded as “+ (0.5 to 1.5 relative activity over Rd4BB (SEQ ID NO: 15))”. Moreover, the “Relative Activity … at pH 3.7” value in data set [2] was “+ (0.5 to 1.5 relative activity over Rd4BB (SEQ ID NO: 15))”. For the same molecule, the “Relative Activity of GLA Variants After No Challenge (NC)” value in data set [3] was “+ (0.5 to 1.5 relative activity over Rd4BB (SEQ ID NO: 15))”.
